Assay results from the DeepSol protein solubility set.

test: soluble on expression in E. coli; label from the status in PepcDB or PDB records

Sequence	soluble on expression in E. coli
MGSDKIHHHHHHMEIAVLGGGNGSTAAAVDLTAQGHNIRFWRRNASAQAELKARGNVITLKDFEGARPIRITMVTDDIGEAIRGAELIVCPTPATAQSDIAAAMAPHLADGQVVFLPPGSFGSWIMADIVRKAGNHADVSWAETGTLPYLTRLHGADTVAITTRATRLPTGVYPLRNAEHAHSVLARAYPAVEPAGDALSGALMNAGPIIHPPLITMNAGPIEHFDHWDIHNEGTQPAIRRVTTRLDAERMAVREALGYGAPHFPLADHYETSDWMYGNLAHDKLVDSGDWREHLVLTEHRYMREDVAVGLALLVSVADWAGVPAPTATGLLALGSAICDDDFRQSGRTLENLGLADMDRAALQTMLRDGA	not soluble
MATLLRSLALFKRNKDKPPITSGSGGAIRGIKHIIIVPIPGDSSITTRSRLLDRLVRLIGNPDVSGPKLTGALIGILSLFVESPGQLIQRITDDPDVSIRLLEVVQSDQSQSGLTFASRGTNMEDEADQYFSHDDPISSDQSRFGWFENKEISDIEVQDPEGFNMILGTILAQIWVLLAKAVTAPDTAADSELRRWIKYTQQRRVVGEFRLERKWLDVVRNRIAEDLSLRRFMVALILDIKRTPGNKPRIAEMICDIDTYIVEAGLASFILTIKFGIETMYPALGLHEFAGELSTLESLMNLYQQMGETAPYMVILENSIQNKFSAGSYPLLWSYAMGVGVELENSMGGLNFGRSYFDPAYFRLGQEMVRRSAGKVSSTLASELGITAEDARLVSEIAMHTTEDKISRAVGPRQAQVSFLHGDQSENELPRLGGKEDRRVKQSRGEARESYRETGPSRASDARAAHLPTGTPLDIDTASESSQDPQDSRRSADALLRLQAMAGISEEQGSDTDTPIVYNDRNLLD	not soluble
MYEYLLLTRKNALFSLAINEPSPTFALTIIAIFSSTNVRSSVVRLGCFRVEICCTCHTQYLKLEIMVIISYLKYVNLPCSFIFISNSFALVFKISAEV	soluble
MSLDLNDTYSGKREPFSGDHSADGFEVTSRSEMSSGSEISPVSEMPSSSEPSSGADYDYSEEYDNEPQIPGYIVDDSVRVEQVVKPPQNKTESENTSDKPKRKKKGGKNGKNRRNRKKKNPCNAEFQNFCIHGECKYIEHLEAVTCKCQQEYFGERCGEKSMKTHSMIDSSEGHHHHHH	soluble
MAHHHHHHMLQPFQLLQSLVSPIVGVSAKVTVGNQAKDDFLLKTLAIDKKKLDPSYFEKYDNLKWEGKIIAIGDIHGDMESLKLILRHANLINENDEWIAENVLLVQVGDVLDRGIYGPLIYNYLFKLQKEAPLKKSKVLLIMGNHEQLNMCGYFNYVNQKEVEIFFKNNFNYRLFHFVSTAGEYFKKLIRLPVIAKVNDILFVHAGISKQISSLSLQTIRLKTRLQIENMCKILSYDKSRDYVNREGVLWYDHVSRTAPYDEKQACAILSHVFNKYGAKHLVVGHTKQMTHEISTYCNGGLFLIDTGMSLFMNNGQPYPNYLVAENGIFKSVHLNVEVNKKSKYCDSLEIELRSPNKQSFCIHAKETLLSPPNGG	not soluble
MPKSFYFCKTLERLTLSDKILVDVPCQVSLPSLRELDLFCVVYKDEDSHVKLLSSCPVLKHLKVTRNRRVEDNVRTFRVEVPSLLRLDYKAGMMFREDSDMSDPFLVTDTPNLLSLHIFDTVGYSLSVWYMPHLVTVVTDELFPSEKFMRPLSSVKYLALSPFDTMVPWCDAVNNYSRLVECMIHLSEYDLLESLLVLLSKCSKLKVFLVDSDIPRWNHDPALWNQPSSIPRCLSSHLEIFEWDGYVGREDEKKIIRYILENSKYLKTAGISPNSTFSGEEKQKMEELESMHRTPTSVLLSSARMSFRY	not soluble
MGSDKIHHHHHHMSEALTIAGVDIQPGTQHQLELPVASLYTDTQVSIPVHVIRAKKDGPKVFVSAAVHGDELNGIEIIRRLIQSKLKLLKGTLILVPMVNVYGVLNQSRYMPDRRDLNRCFPGSPKGSLAGRVAYTFLNSIVQHCDYGIDLHTGAIHRSNLPQIRANLDDEQTLALAQAFGVPVLLNANVRDGSLREAAVNKGTRVLLYEAGQALRFDELSIQTGERGILNVLSSLGLIRKRRLRKKIEPFIANRSDWTRASASGFVCEFAKLGAYVEKGQVLAEINSPLGELIQSVVSNRTGIVIGKQNIPLVLEGDAMFHVAYFGSAADEVAEHIEIMNDQIMPLTTQTI	not soluble
MAGDPMRRPHMSDATLVYDDDCGFCTWWADFIGERSDLEIVGFSALGDDLLERLPDDYESCSHLVTEEDVYSCGKSIETALTYTELGKPARPLVSFLRQFEDYERFRERAYRQVADNRSKWGKVMSKTPPARRDNSDLEHHHHHH	not soluble
MNPDHKEIIMNHIGLFALTAAALLAGCSSNTQQDNYREASFELCNTEVNIYSVSDDGQVRIVCADGAKFALKTEKTLDIMRDINVDYCDGEGLGKFTESNKYYMFKCKSGTMISVSK	not soluble
MKIGLFYGSSTCYTEMTAEKIRAILGEELVDIHNVKESPLTLMSDYDLLLLGISTWDFGEIQEDWSAVWDHIGGVSLKNKYVALFGLGDQEGYGEWYLDAMGLLHDQIKKSGANLLGYWPNQGYHFEASKALTEDGSHFVGLALDEDSQYDLSDERIATWVEQVLTEYHDAI	not soluble
QVPILHRDADFLLRALQPDDFVRTSRYENANREHLAPWEPLRDPGYFSVDNARARTLLQVASMDEGEALLLLLLDPDDGEVLGRCSYTNIVRGVFQACHLGFSLAAAAQGRGLMARALRVANRYCFEQLGLHRIMASHLPRNARSERLLESLGFEKEGYARAYLKIAGVWEDHVLRALVDAPR	not soluble
MAPSLDSISHSFANGVASAKQAVNGASTNLAVAGSHLPTTQVTQVDIVEKMLAAPTDSTLELDGYSLNLGDVVSAARKGRPVRVKDSDEIRSKIDKSVEFLRSQLSMSVYGVTTGFGGSADTRTEDAISLQKALLEHQLCGVLPSSFDSFRLGRGLENSLPLEVVRGAMTIRVNSLTRGHSAVRLVVLEALTNFLNHGITPIVPLRGTISASGDLSPLSYIAAAISGHPDSKVHVVHEGKEKILYAREAMALFNLEPVVLGPKEGLGLVNGTAVSASMATLALHDAHMLSLLSQSLTAMTVEAMVGHAGSFHPFLHDVTRPHPTQIEVAGNIRKLLEGSRFAVHHEEEVKVKDDEGILRQDRYPLRTSPQWLGPLVSDLIHAHAVLTIEAGQSTTDNPLIDVENKTSHHGGNFQAAAVANTMEKTRLGLAQIGKLNFTQLTEMLNAGMNRGLPSCLAAEDPSLSYHCKGLDIAAAAYTSELGHLANPVTTHVQPAEMANQAVNSLALISARRTTESNDVLSLLLATHLYCVLQAIDLRAIEFEFKKQFGPAIVSLIDQHFGSAMTGSNLRDELVEKVNKTLAKRLEQTNSYDLVPRWHDAFSFAAGTVVEVLSSTSLSLAAVNAWKVAAAESAISLTRQVRETFWSAASTSSPALSYLSPRTQILYAFVREELGVKARRGDVFLGKQEVTIGSNVSKIYEAIKSGRINNVLLKMLA	soluble
MSLLSYRHAFHAGNHADMLKHFTLFLVLQYFNRKDKPYWYIDTHGGAGVYNLEGSEAQKVGEYRQGIALLRQAQNLPAELSDFAAHIQKILPSPELYCGSPWLAQSLTRVGDKLRLFELHPTDFVHLQNNMGEAGLGKRGQVLREDGYKGLISLLPPPPRRAAVLIDPPYEEKQDYWRVTETLKSALKRFESGCYLIWYPCLSREESRKLPEELKKLVPDNYLHAELHVHAPKADGFGMHGSGMFVINPPYLLAEQLAANLPALTRLLAQDEGARYLLDSKEGHHHHHH	soluble
MARGIKLVIFDVDGVLVEVKSSWGYIHRRLGVEEEAMKVKEMFERGSIDYIEWMRLDTELWIRASGGRLHRSRLMEIVGEIPVRKEAFEAVRMLRRMGLRIGLVSSGIDLLVRRVAAEIGADAWASNRLLFDKNGFLQPGGSPLVGVDKRGAVTRMAYELGASLEEVAYVGDSRWDASAMSIVGLPIAYNDGGELDGVARARVDSLLDVPRVVAEWGRARAR	not soluble
MSLKPLADRIRPENFNEVFGQKHIIGEGKILDRILKSSLVPNMIFYGPPGTGKTTVANIIAKKTNKAFYKLNATTASVKDVREITDSTNTLMGRNGVLLYLDEIQNFNKKQQQSLLEFMENGSITLIASTTENPYFYVYNAILSRSTIFEFKPLESDELMKAVNRAVELIKDELKTTEIIITEDAKKYAVGVSSGDVRKTLNSIEIAVYSTKPNEEGNIFIDLETMKECTQKNVLNFDKDGDNHYDILSAFQKSIRGSDADAAVLYLAMLIKGGDLKSICRRLLVIAAEDIGLAYPQAISIVKACTDSALELGFPEARIPLAEAVILLATSPKSNSAITAVDSALRDLDTINVGSIPDYLRDGHYEGAKKLGRMQDYKYPHSYENNYVKQKYLPSNLENRRYYEYGKNKIEEKCREYWERIKEGHHHHHH	soluble
MSLEREKVELFKEVLKKLHKGEDVESLKKQFGELLSQIPPFEIPVIEQELLKSGEIDVRDIIKMCDLHVEFFRGAVSEAGREIEKLPNGHPLRTLYEENKQILKDAEALSLLASSMFSLPKDDPRRKQFYEKLVQHVSELHRIGLTHYTREEMLIFPYIERRGITAVPTVLWSKHDETRLKIRLLLNLLKKEESDERLKEEALELSRMLSDMVFRENNILYPTLKVLLTEGEWKAIKMLEKDIGYYKIEVTEEWETPEKPLLPHRNCLRRPIPFRGLGGSRHVYHLQIQEGHHHHHH	soluble
IPEEGGDELGAMARTLSLFRESAIEKKKLEDEAERQRRTIAAALEVISDGFVLYDSEDRILVANSKYCEIFPSHKPNTLRGRSFREIVEQNLEMGQVDLEGKSPQEWVDERVRLHRDPAGLVDEKRFGDKWVRISKRKIPD	not soluble
MNKKEIQAYQSAFEKFNPFYGVDFPITSVKLCELINKMRNDHNEKVVELRHDHLMNKIREFSEQVNAPNFRVVESSYKDTKGEDRKCYLLGKTECRAIAATESKSVCYMIMVYLDQLEQIFEKAKEAKATEFDRKLSKQGVTWREACRTVGIEHPDLALK	not soluble
MSLEAAPAGSGPLRRTFLVPEIKSLDQYDFSRAKAAASLAWVLRAAFGGAEHVPPELWEPFYTDQYAQEHVKPPVTRLLLSAELYCRAWRQALPQLEPSPSPSALLALLARRGTVPSLPEHPVREADLKHQPILMGAHLAVIDALMVAFSFEWTKTLPGPLALSSLEHKLLFWVDTTVRRLQEKTEQEAAQRASPAAPLDGASEGHHHHHH	not soluble
MNNDVTRILKDARDQGRLTALDYAELIFDNFMELHGDRQFADDKSIIGGLGYLAGRPVTIVGIQKGKNLQDNLDRHFGQPHPEGYRKALRLMKQAEKFGRPVITFINTAGAYPGVGAEERGQGEAIARNLLEMSDLKVPIIAIIIGEGGSGGALALAVADKVWMLEHTVYSILSPEGFASILWKDGTRTTEAAQLMKMTAGELYHMEVVDKVIPEHGYFSSEIVDMIKTSLISELEVLSQLSLEDLLEQRYQRFRKY	not soluble
GMADPKELQDKFWKALKSDRTVMLGLDGVEDGHARPMTAQIEGDSGGPIWFFTSKDNALIAMLGQGRRVIGAFSSKGHDLFASISGSLREDTDPAVVDRLWNPYVAAWYEGGKDDPKLALLRLDADHAQIWLNGSSLLAGIKVLLGV	soluble
MTNQNLQDFLDGVLLKEENLNKITEVSLEKGLPHLLDEGIHNEDNFQIFTSQKIVADMIKMVGVKEMKNVHTTVLEPTSGDGAFTCAILDLRLKNIKKSDSFLKEALTGLSTIYSVEIDEELVWLQRNNLYSIFLAFLKKHGIFNEELSLLVKKILMINVSWGELITETKDNENFVCNYDYFLRNKKTKKKPAKHKHEFPEGLFSNGEGKCKSLFVNWSFADVINEIAHNSNFYFAKIAKIPGEIIQFQIN	not soluble
